# In patent US20090029370, “REAL TIME NUCLEIC ACID DETECTION IN VIVO USING PROTEIN COMPLEMENTATION” (TRUSTEES OF BOSTON UNIVERSITY, published 2009):
# T1: λN peptide (Bacteriophage lambda, UniProt P03045 SEQ:1-22)
# T1 chain: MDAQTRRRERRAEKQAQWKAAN
# T2: Rex peptide (printed HIV-1 Rex in tables, HTLV-1 Rex in text) (Human T-cell leukemia virus type 1?)
# T2 chain: MPKTRRRPRRSQRKRP
# Legend:
# Details in all cases: protein: synthetic; tags: custom-synthesized peptide
# [1] = molecular target: Rev peptide (printed HTLV-1 Rev); experiment: EMSA; cross-reactivity; 50 mM Tris-HCl pH 8.0, 50 mM KCl, 30 C
# [2] = molecular target: T1, λN peptide; experiment: EMSA; 50 mM Tris-HCl pH 8.0, 50 mM KCl, 30 C
# [3] = molecular target: T2, Rex peptide (printed HIV-1 Rex in …); experiment: EMSA; 50 mM Tris-HCl pH 8.0, 50 mM KCl, 30 C
# [4] = molecular target: T2, Rex peptide (printed HIV-1 Rex in …); experiment: EMSA; 50 mM Tris-HCl pH 8.0, 50 mM KCl, 30 C, ethidium bromide stain
# Text: Experiments in vitro to choose aptamer-peptide pairs. Based on available data we chose three peptide/aptamer pairs; (i) […]; (ii) Bacterophage λN; and (iii) […] (see Table 1) and tested their binding affinity with cognate partner and cross-reactivity with two other RNA aptamers in vitro. We used non-radioactive gel-shift assay under conditions when fixed concentrations of RNA aptamer were allowed to form complexes with increasing ARM-peptide concentrations. We quantified the amount of the unbound RNA aptamer and the amount of the shifted complex (Table 1). […] At the same time, […] peptide did show some cross-reactivity with the two non-matched RNA aptamers.
# In Vitro Gel-Shift Assay. RNAs were first denatured by heating at 95° C. in buffer (50 mM pH 8.0 Tris-HCl, 50 mM KCl) for 3 minutes and then slowly cooled to room temperature to renature the RNAs. Renatured RNAs and peptides were mixed in a common buffer (50 mM Tris-HCl, pH 8.0, 50 mM KCl) at 30° C. for 15 minutes. Peptide-RNA aptamer complexes were analyzed using gel electrophoresis with 15% TBE gel. RNA aptamers and peptide-RNA aptamer complexes were stained with ethidium bromide.
Binder,binding result [1],binding result [2],binding result [3],binding result [4]
GGAUCCGGGCCCUGAAGAAGGGCCCUUUCCUUU (ssRNA) [λN aptamer (boxB)],binds,binds,no binding,–
UAGGCGACGGUACGCAAGUACUCUUGCGCCGGCCUA (ssRNA) [anti-Rex aptamer],–,no binding,–,binds
GGCUGGACUCGUACUUCGGUACUGGAGAAACAGCC (ssRNA) [anti-Rev aptamer],–,no binding,no binding,–
